These results are taken from US20260209358A1.

T1: CD37 on CD37+ target tumor cells (Daudi or Ramos cells) (UniProt P11049)
T1 sequence (looked up): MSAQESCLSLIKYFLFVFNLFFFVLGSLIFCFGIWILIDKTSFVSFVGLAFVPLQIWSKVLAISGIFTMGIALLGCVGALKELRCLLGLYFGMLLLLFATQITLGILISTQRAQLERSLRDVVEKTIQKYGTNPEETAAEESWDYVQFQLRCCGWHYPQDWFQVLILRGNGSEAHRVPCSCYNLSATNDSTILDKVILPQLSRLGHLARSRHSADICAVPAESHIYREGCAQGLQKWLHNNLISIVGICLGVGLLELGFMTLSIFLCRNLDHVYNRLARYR

B1: 016-H5L2 × NKp46-2 H1L1 CD37/NKp46 bispecific MB (protein, part only; not given: Fab constants, linkers, ferritin, scFc, not shown: another chain or arm of the molecule; large carriers; small tags and cut ends)
VH 1: EVQLVESGGGLVQPGGSLRLSCAASGFSLSNYNMGWVRQAPGKGLEWVSVIDASGTTYYATWAKGRFTISRDNSKNTLYLQMNSLRAEDTATYYCARELLYFGSSYYDLWGQGTLVTVSS
VL 1: DVVMTQSPSTLSASVGDRVTITCQASQNIDSNLAWYQQKPGKAPKFLIYYASNLPFGVPSRFKGSGSGTEFTLTISSLQPDDFATYYCQSADVGSTYVAAFGGGTKVEIK
VH 2: QVQLQESGPGLVKPSQTLSLTCTVSGYSISSDYAWNWIRQPPGKGLEWIGYITYSGSTSYNPSLESRVTISRDTSKNQFSLKLSSVTAADTAVYYCARGGYYGSSWGVFAYWGQGTLVTVSS
VL 2: DIQMTQSPSSLSASVGDRVTITCRVSENIYSYLAWYQQKPGKAPKLLVYNAKTLAEGVPSRFSGSGSGTDFTLTISSLQPEDFATYYCQHHYGTPWTFGGGTKVEIK
modifications: The variable domains sit in single-chain Fabs fused to human ferritin light chain. The NKp46 chain also carries a C-terminal scFc. The chains form a self-assembled multivalent nanocage.
B2: 016-H5L2 × NKp46-4 H1L2 CD37/NKp46 bispecific MB (protein, part only; not given: Fab constants, linkers, ferritin, scFc, not shown: another chain or arm of the molecule; large carriers; small tags and cut ends)
VH 1: B1 VH 1
VL 1: B1 VL 1
VH 2: QVQLVQSGAEVKKPGASVKVSCKASGYTFTSFTMHWVRQAPGQGLEWIGYINPSSGYTEYNQKFKDRVTITADKSTSTAYMELSSLRSEDTAVYYCVRGSSRGFDYWGQGTLVTVSS
VL 2: DIQMTQSPSSLSASVGDRVTITCRASENIYSNLAWFQQKPGKAPKLLVYAATNLADGVPSRFSGSGSGTDYTLTISSLQPEDFATYYCQHFWGTPRTFGGGTKVEIK
modifications: The variable domains sit in single-chain Fabs fused to human ferritin light chain. The NKp46 chain also carries a C-terminal scFc. The chains form a self-assembled multivalent nanocage.
B3: 016-H5L2 × NKp46-1 H1L1 CD37/NKp46 bispecific MB (protein, part only; not given: Fab constants, linkers, ferritin, scFc, not shown: another chain or arm of the molecule; large carriers; small tags and cut ends)
VH 1: B1 VH 1
VL 1: B1 VL 1
VH 2: QVQLVQSGAEVKKPGSSVKVSCKASGYTFSDYVINWVRQAPGQGLEWMGEIYPGSGTNYYNEKFKAKATITADKSTSTAYMELSSLRSEDTAVYYCARRGRYGLYAMDYWGQGTTVTVSS
VL 2: DIQMTQSPSSLSASVGDRVTITCRASQDISNYLNWYQQKPGKAPKLLIYYTSRLHSGVPSRFSGSGSGTDFTFTISSLQPEDIATYFCQQGNTRPWTFGGGTKVEIK
modifications: The variable domains sit in single-chain Fabs fused to human ferritin light chain. The NKp46 chain also carries a C-terminal scFc. The chains form a self-assembled multivalent nanocage.
B4: 016-H5L2 × NKp46 09 CD37/NKp46 bispecific MB (protein, part only; not given: Fab constants, linkers, ferritin, scFc, not shown: another chain or arm of the molecule; large carriers; small tags and cut ends)
VH 1: B1 VH 1
VL 1: B1 VL 1
VH 2: EVQLQQSGAEVKKPGSSVKVSCKTSGYTFTEYSMHWVRQAPGKSLEWFGGISPNSGGTSYNQKFKGRATLTVDKSSSTAYMELSSLRSEDTAVYYCARRDFHSSFDYWGQGTTVTVSS
VL 2: DIVMTQSPATLSLSPGERATLSCRASQSISDYLHWFQQKPHESPRLLIKYASQSISGIPARFSGSGSGSDFTLTISSLEPEDFAVYYCQNGHSFPLTFGPGTKVDIK
modifications: The variable domains sit in single-chain Fabs fused to human ferritin light chain. The NKp46 chain also carries a C-terminal scFc. The chains form a self-assembled multivalent nanocage.
B5: Naratuximab × NKp46-2 H1L1 CD37/NKp46 bispecific MB (protein, part only; not given: Fab constants, linkers, ferritin, scFc, not shown: another chain or arm of the molecule; large carriers; small tags and cut ends)
VH 1: B1 VH 2
VL 1: B1 VL 2
VH 2: QVQVQESGPGLVAPSQTLSITCTVSGFSLTTSGVSWVRQPPGKGLEWLGVIWGDGSTNYHPSLKSRLSIKKDHSKSQVFLKLNSLTAADTATYYCAKGGYSLAHWGQGTLVTVSS
VL 2: DIQMTQSPSSLSVSVGERVTITCRASENIRSNLAWYQQKPGKSPKLLVNVATNLADGVPSRFSGSGSGTDYSLKINSLQPEDFGTYYCQHYWGTTWTFGQGTKLEIK
B6: Naratuximab × NKp46-1 H1L1 CD37/NKp46 bispecific MB (protein, part only; not given: Fab constants, linkers, ferritin, scFc, not shown: another chain or arm of the molecule; large carriers; small tags and cut ends)
VH 1: B3 VH 2
VL 1: B3 VL 2
VH 2: B5 VH 2
VL 2: B5 VL 2
B7: Naratuximab × NKp46 09 CD37/NKp46 bispecific MB (protein, part only; not given: Fab constants, linkers, ferritin, scFc, not shown: another chain or arm of the molecule; large carriers; small tags and cut ends)
VH 1: B4 VH 2
VL 1: B4 VL 2
VH 2: B5 VH 2
VL 2: B5 VL 2
B8: Naratuximab × NKp46-4 H1L2 CD37/NKp46 bispecific MB (protein, part only; not given: Fab constants, linkers, ferritin, scFc, not shown: another chain or arm of the molecule; large carriers; small tags and cut ends)
VH 1: B2 VH 2
VL 1: B2 VL 2
VH 2: B5 VH 2
VL 2: B5 VL 2
B9: 016-H5L2 IgG (parent CD37 IgG) (antibody, V domains shown)
VH: B1 VH 1
VL: B1 VL 1
B10: Naratuximab IgG (parent CD37 IgG) (antibody, V domains shown)
VH: B5 VH 2
VL: DIQMTQSPSSLSVSVGERVTITCRASENIRSNLAWYQQKPGKSPKLLVNVATNLADGVPSRFSGSGSGTDYSLKINSLQPEDFGTYYCQHYWGTTWTFGQGTKLEIKR

The first assay addresses hNKp46-His (extracellular domain of hNKp46 with a C-terminal polyhistidine tag) (human) (UniProt O76036). Put plainly: BLI (Octet RED96), hNKp46-His on Ni-NTA biosensors, MB in solution, 1:1 fit.
Sequence of UniProt O76036 (O76036 22-258): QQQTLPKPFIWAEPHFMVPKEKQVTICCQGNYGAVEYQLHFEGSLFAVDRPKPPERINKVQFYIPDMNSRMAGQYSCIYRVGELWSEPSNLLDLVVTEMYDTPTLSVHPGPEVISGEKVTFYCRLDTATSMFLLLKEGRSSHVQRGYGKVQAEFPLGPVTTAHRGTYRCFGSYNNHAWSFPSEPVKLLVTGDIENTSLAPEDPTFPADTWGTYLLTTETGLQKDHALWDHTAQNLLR
For B1, the dissociation constant (Kd) was < 1 pM, the off-rate constant (koff) is < 1e-07 s⁻¹ and the on-rate (kon) is 1.25e+06 M⁻¹ s⁻¹.
Regarding B2, the dissociation constant (Kd) is < 1 pM, the koff was < 1e-07 s⁻¹ and the kon was 1.67e+06 M⁻¹ s⁻¹.
Regarding B3, the equilibrium dissociation constant (Kd) was < 1 pM, the koff was < 1e-07 s⁻¹ and the kon was 2.15e+06 M⁻¹ s⁻¹.
Take B4: the equilibrium dissociation constant (Kd) is < 1 pM, the dissociation rate constant (koff) is < 1e-07 s⁻¹ and the on-rate (kon) amounted to 1.06e+06 M⁻¹ s⁻¹.
Regarding B5, the Kd is < 1 pM, the dissociation rate constant (koff) is < 1e-07 s⁻¹ and the kon worked out at 2.2e+06 M⁻¹ s⁻¹.
With B6, the Kd is < 1 pM, the koff was < 1e-07 s⁻¹ and the association rate constant (kon) is 3.65e+06 M⁻¹ s⁻¹.
B7: the dissociation constant (Kd) was < 1 pM, the off-rate constant (koff) was < 1e-07 s⁻¹ and the kon was 1.63e+06 M⁻¹ s⁻¹.
On to B8, for which the Kd came to 17.5 pM, the off-rate constant (koff) was 3.42e-05 s⁻¹ and the kon came to 1.96e+06 M⁻¹ s⁻¹.

The next assay deals with T1, CD37 on CD37+ target tumor cells (Daudi or Ramos cells). Put plainly: cell-based or functional assay.
On to B9, for which the EC50 of ADCC (calcein release) on Ramos cells with primary human NK cells was 8.34 pM and the EC50 of ADCP on Ramos cells with THP-1 effector cells worked out at 21.4 pM.
For the molecule B1, the EC50 of ADCC (calcein release) on Ramos cells with primary human NK cells is 2.91 pM.
For the molecule B2, the EC50 of ADCC (calcein release) on Ramos cells with primary human NK cells is 3.73 pM and the EC50 of apoptosis (Annexin-V+ cells, flow cytometry) on Daudi cells came out at 142 pM.
As for B3, the EC50 of ADCC (calcein release) on Ramos cells with primary human NK cells was 1.2 pM and the EC50 of apoptosis (Annexin-V+ cells, flow cytometry) on Daudi cells was found to be 102 pM.
As for B4, the EC50 of ADCC (calcein release) on Ramos cells with primary human NK cells was 2.72 pM.
Take B10: the EC50 of ADCC (calcein release) on Ramos cells with primary human NK cells is 5.97 pM, the EC50 of ADCP on Ramos cells with THP-1 effector cells came out at 37.4 pM and the EC50 of CDC (PI+ cells) on Daudi cells with normal human serum was 450 pM.
On to B5, for which the EC50 of ADCC (calcein release) on Ramos cells with primary human NK cells was 0.374 pM and the EC50 of apoptosis (Annexin-V+ cells, flow cytometry) on Daudi cells was determined as 32 pM.
As for B6, the EC50 of ADCC (calcein release) on Ramos cells with primary human NK cells is 0.316 pM and the EC50 of apoptosis (Annexin-V+ cells, flow cytometry) on Daudi cells was determined as 54 pM.
Regarding B7, the EC50 of ADCC (calcein release) on Ramos cells with primary human NK cells was 0.843 pM.
As for B8, the EC50 of ADCC (calcein release) on Ramos cells with primary human NK cells is 0.777 pM and the EC50 of apoptosis (Annexin-V+ cells, flow cytometry) on Daudi cells stood at 73 pM.
